Data published in US20220275100A1 (JIANGSU HENGRUI MEDICINE, published 2022).
Where a chain is given by its changes, count along the chain named. In names and notes the source's numbering stands.

B1: hu11E (antibody, human IgG1, kappa)
heavy: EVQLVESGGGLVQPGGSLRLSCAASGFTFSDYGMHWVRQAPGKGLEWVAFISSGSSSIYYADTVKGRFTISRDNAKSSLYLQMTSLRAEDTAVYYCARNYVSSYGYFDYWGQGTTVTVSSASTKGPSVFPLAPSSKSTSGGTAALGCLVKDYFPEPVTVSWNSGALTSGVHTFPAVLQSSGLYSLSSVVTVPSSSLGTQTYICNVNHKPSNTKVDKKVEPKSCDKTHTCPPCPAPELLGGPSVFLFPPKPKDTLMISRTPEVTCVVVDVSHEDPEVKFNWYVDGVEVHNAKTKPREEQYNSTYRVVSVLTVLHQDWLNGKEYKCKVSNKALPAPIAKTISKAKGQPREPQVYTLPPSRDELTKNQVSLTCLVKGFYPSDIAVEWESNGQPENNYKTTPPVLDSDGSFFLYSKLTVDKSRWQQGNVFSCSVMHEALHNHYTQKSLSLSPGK
light: DIVMTQSPDSLAVSLGERATINCRASENVDNYGISFMHWYQQKPGQPPKLLIYRASNLESGVPDRFSGSGSGTDFTLTISSLQAEDVAVYYCQQSNKDPLTFGGGTKVEIKRTVAAPSVFIFPPSDEQLKSGTASVVCLLNNFYPREAKVQWKVDNALQSGNSQESVTEQDSKDSTYSLSSTLTLSKADYEKHKVYACEVTHQGLSSPVTKSFNRGEC
notes: Humanized, human IgG1-E333A / kappa; also called h011-01E
B2: hu160E (antibody, human IgG1, kappa)
heavy: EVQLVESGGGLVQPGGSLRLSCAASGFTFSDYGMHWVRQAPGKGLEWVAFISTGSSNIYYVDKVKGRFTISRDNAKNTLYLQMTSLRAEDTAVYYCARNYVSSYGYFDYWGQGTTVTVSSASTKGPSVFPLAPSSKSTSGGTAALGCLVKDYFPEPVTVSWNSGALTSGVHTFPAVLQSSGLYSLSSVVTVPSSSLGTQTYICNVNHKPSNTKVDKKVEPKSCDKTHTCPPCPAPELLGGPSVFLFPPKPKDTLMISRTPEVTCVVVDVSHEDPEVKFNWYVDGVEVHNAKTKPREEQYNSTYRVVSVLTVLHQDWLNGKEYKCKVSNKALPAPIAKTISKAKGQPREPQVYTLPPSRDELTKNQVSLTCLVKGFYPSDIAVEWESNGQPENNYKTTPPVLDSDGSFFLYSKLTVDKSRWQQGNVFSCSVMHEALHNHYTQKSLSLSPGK
light: B1 light with D9A, N28S, S95T
notes: Humanized, human IgG1-E333A / kappa; also called h160-01E
B3: hu9E (antibody, human IgG1, kappa)
heavy: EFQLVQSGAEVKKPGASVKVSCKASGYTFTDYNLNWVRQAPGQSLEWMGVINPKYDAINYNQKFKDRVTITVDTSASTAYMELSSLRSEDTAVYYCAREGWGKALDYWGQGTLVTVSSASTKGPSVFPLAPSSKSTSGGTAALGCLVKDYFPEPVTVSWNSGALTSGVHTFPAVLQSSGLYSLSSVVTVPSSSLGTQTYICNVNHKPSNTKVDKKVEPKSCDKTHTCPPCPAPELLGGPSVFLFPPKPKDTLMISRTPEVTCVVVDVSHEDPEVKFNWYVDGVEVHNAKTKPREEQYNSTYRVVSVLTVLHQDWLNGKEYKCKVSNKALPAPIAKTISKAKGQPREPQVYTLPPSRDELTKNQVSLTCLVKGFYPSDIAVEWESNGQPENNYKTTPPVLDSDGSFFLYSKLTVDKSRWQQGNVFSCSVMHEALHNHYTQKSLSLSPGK
light: EIVLTQSPATLSLSPGERATLSCRASQSIYTNLHWYQQKPGQSPRLLIKYASQSISGIPARFSGSGSGTDFTLTISSLEPEDFAVYYCQQSNSWPLTFGGGTKVEIKRTVAAPSVFIFPPSDEQLKSGTASVVCLLNNFYPREAKVQWKVDNALQSGNSQESVTEQDSKDSTYSLSSTLTLSKADYEKHKVYACEVTHQGLSSPVTKSFNRGEC
notes: Humanized, human IgG1-E333A / kappa; also called h009-07E

What was measured:
[1] = biological target: T1, Fusion protein of CD38 extracellular domain with His tag: CD38-ECD-His (human, UniProt P28907 43-300); test: cell-based or functional assay
[2] = biological target: T1, Fusion protein of CD38 extracellular …; test: SPR (Biacore), antibody captured as ligand, Human CD38-His as analyte
Description: Then the human CD38-ECD-His antigen passed through the surface of the chip, and a real-time detection for the reaction signal was performed with Biacore instrument. The resulting binding and dissociation curves were fitted to calculate the affinity values. After the dissociation of each cycle was completed in the experiment, the biochip was washed and regenerated with the regeneration solution supplied in the Human Fc Capture Kit (GE).

[3] = biological target: T1, Fusion protein of CD38 extracellular …; test: ELISA, biotin-labeled CD38-ECD-His on streptavidin-coated plate
Description: The affinity of the anti-CD38 antibodies were determined by the amount of the antibodies binding to CD38 immobilized on the ELISA plate. […] The plate was washed again and tetramethyl benzidine solution was added for color reaction. Finally, stop solution was added. OD450 was measured on a microplate reader and EC50 value was calculated.

[4] = biological target: T2, full-length human CD38 on CHO-S cells (CD38-FL-CHOS) (human, UniProt P28907 1-300); test: flow cytometry on CD38-FL-CHO-S cells
T2 construct: whole, on cells; also called natural CD38 present on the cell surface

Binder | IC50 (µg/ml), inhibition of CD38 enzyme activity (cGDPR production from NGD) [1] [µg/mL] | Imax (Maximum inhibition rate %) [1] [%] | Kd [2] [nM] | koff [2] [s⁻¹] | kon [2] [M⁻¹ s⁻¹] | EC50 [3] [µg/mL] | EC50 [4] [µg/mL]
B1 | 1.83 | 44.3 | 0.568 | 0.00117 | 2.07e+06 | 0.0276 | 0.481
B2 | 1.2 | 47.7 | 0.0585 | 0.000115 | 1.96e+06 | 0.028 | 0.474
B3 | 1.56 | 89.6 | 1.31 | 0.00138 | 1.05e+06 | 0.0259 | 0.402
